Data reported in article PMC4826271, “New Structural Insights into the Genome and Minor Capsid Proteins of BK Polyomavirus using Cryo-Electron Microscopy” (Structure(London, England:1993), 2016).

B1: BK polyomavirus major capsid protein VP1 (native infectious virion, Dunlop strain) (natural protein)
chain: MAPTKRKGECPGAAPKKPKEPVQVPKLLIKGGVEVLEVKTGVDAITEVECFLNPEMGDPDENLRGFSLKLSAENDFSSDSPERKMLPCYSTARIPLPNLNEDLTCGNLLMWEAVTVQTEVIGITSMLNLHAGSQKVHEHGGGKPIQGSNFHFFAVGGEPLEMQGVLMNYRSKYPDGTITPKNPTAQSQVMNTDHKAYLDKNNAYPVECWVPDPSRNENARYFGTFTGGENVPPVLHVTNTATTVLLDEQGVGPLCKADSLYVSAADICGLFTNSSGTQQWRGLARYFKIRLRKRSVKNPYPISFLLSDLINRRTQRVDGQPMYGMESQVEEVRVFDGTERLPGDPDMIRYIDKQGQLQTKML
notes: Major capsid protein VP1 of BK polyomavirus, Dunlop strain, as assembled in the native virion; Five copies form one penton; 72 pentons form the T = 7d capsid, with VP1 in six quasi-equivalent conformations; PDB 5FUA is a homology model of BK VP1 (built on SV40, PDB 1SVA) fitted into the virion map; also called BK VP1; BKPyV VP1; source: Vero cells transfected/infected with the BK Dunlop genome; …

Assays:
[1] = molecular target: BK polyomavirus major capsid protein VP1 (VP1-only virus-like particle) (BK polyomavirus) (UniProt P03088); experiment: cryo-EM structure; purified VP1-only VLPs in buffer A supplemented with 50 mM CaCl2, vitrified; FEI Polara, K2 summit in super-resolution mode; icosahedral single-particle reconstruction in RELION, 9.1 Å
[2] = molecular target: the molecule itself; experiment: cryo-EM structure; purified native BK virions in buffer A (10 mM HEPES pH 7.9, 1 mM CaCl2, 1 mM MgCl2, 5 mM KCl), vitrified; FEI Tecnai-F20, 200 kV, K2-Summit; icosahedral single-particle reconstruction in RELION, 7.6 Å
[3] = molecular target: B1; experiment: as above; details: both partners purified

## BK polyomavirus major capsid protein VP1 (VP1-only virus-like particle) (from UniProt P03088 1-362) (natural protein)
[1]
  stoichiometry N: 5

## B1
[2]
  stoichiometry N: 5

B2: BK polyomavirus minor capsid protein VP2 (natural protein)
chain: MGAALALLGDLVASVSEAAAATGFSVAEIAAGEAAAAIEVQIASLATVEGITSTSEAIAAIGLTPQTYAVIAGAPGAIAGFAALIQTVSGISSLAQVGYRFFSDWDHKVSTVGLYQQSGMALELFNPDEYYDILFPGVNTFVNNIQYLDPRHWGPSLFATISQALWHVIRDDIPSITSQELQRRTERFFRDSLARFLEETTWTIVNAPINFYNYIQQYYSDLSPIRPSMVRQVAEREGTRVHFGHTYSIDDADSIEEVTQRMDLRNQQSVHSGEFIEKTIAPGGANQRTAPQWMLPLLLGLYGTVTPALEAYEDGPNQKKRRVSRGSSQKAKGTRASAKTTNKRRSRSSRS
notes: Minor capsid protein VP2 of BK polyomavirus, Dunlop strain; printed mass 38.3 kDa; same open reading frame as VP3, with an extended N terminus; The introduction says the extended N terminus of VP2 holds a site for myristoylation; also called VP2/3; VP2/VP3; source: Vero cells transfected/infected with the BK Dunlop genome; in purified virions (CsCl gradient, 1-MDa centrifugal concentrator)
[3]
  binding result: binds

B3: BK polyomavirus minor capsid protein VP3 (natural protein)
chain: MALELFNPDEYYDILFPGVNTFVNNIQYLDPRHWGPSLFATISQALWHVIRDDIPSITSQELQRRTERFFRDSLARFLEETTWTIVNAPINFYNYIQQYYSDLSPIRPSMVRQVAEREGTRVHFGHTYSIDDADSIEEVTQRMDLRNQQSVHSGEFIEKTIAPGGANQRTAPQWMLPLLLGLYGTVTPALEAYEDGPNQKKRRVSRGSSQKAKGTRASAKTTNKRRSRSSRS
notes: Minor capsid protein VP3 of BK polyomavirus, Dunlop strain; printed mass 26.7 kDa; expressed from the same open reading frame as VP2 but without VP2's extended N terminus; also called VP2/3; VP2/VP3; source: Vero cells transfected/infected with the BK Dunlop genome; in purified virions (CsCl gradient, 1-MDa centrifugal concentrator)
[3]
  binding result: binds
